Reference: the supplement of paper PMC12042874
± gives the uncertainty stated by the source.

Assay: amyloid nucleation score (Sup35N fusion, yeast selection) (log enrichment); library NNK2; higher = more nucleation; inactive = no reads after selection
Procedure, shortened: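 Psi-negative yeast expressed Sup35N fused to peptides of 20 random codons. They were induced 24 hours with 100 μM copper sulfate, grown 7 days at 30°C without adenine and uracil, and their plasmid inserts from input and output were Illumina-sequenced. The nucleation score is the DiMSum log enrichment of output over input reads, centred on the mode score of non-aggregating sequences. Sequences with under 100 input reads were excluded.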

Substance	amyloid nucleation score
TFRLRECWCDADLRVGVMSL	0.778 ± 0.47
NVPLFRSVSGDPVHHPLI	2.41 ± 0.15
IDQLLGLDRSCCVNL	0.387 ± 0.8
NMFIRKEYWSTLALEIFWWS	-0.441 ± 0.4
YTFYLNF	5.27 ± 0.053
ADCVSICVSYRRFHLAKYR	2.73 ± 0.11
YFSGCSSFVS	-0.046 ± 0.49
MVNGEVTLGAVCNTYQWACI	2.66 ± 0.15
ALRVLFLVVWSEHDDCYCGG	0.665 ± 0.42
KIYSTSYDNNTSYISCVWSH	6.708 ± 0.029
DERGMCSLWSRCEYV	-0.287 ± 0.29
MLLRHNEPVLLRAHYYRESA	-0.13 ± 0.76
MYRISPCVLRGY	0.366 ± 0.34
LTPIPFYNPDNISYYNAFPS	inactive
TILCFCAC	4.86 ± 0.056
AFVLRVNYNLNTRGYVSLFK	2.14 ± 0.14
FQFRCCTM	9.232 ± 0.024
LVCSCIGHVHGVTH	7.125 ± 0.067
LVLYGNVA	0.28 ± 0.74
SGGLSR	-0.728 ± 0.79
TFLWKFMLNVTTFFIFPKPV	-1.77 ± 1
SLPFTLLNKSAHWNSLWFPG	-1.24 ± 1.1

Substance	amyloid nucleation score
VINLRLLLIVLDGDIDYWCV	inactive
NCKWCNT	0.996 ± 0.29
LHGVVGLFKY	-1.55 ± 0.41
PPRKTIELCSTQP	0.7 ± 0.35
CWVRLIVGMTCYAFKGGSVV	0.426 ± 0.43
QYRFFVYKLRRQIIYV	-0.191 ± 1.1
APHGLRKHSIMVAGMLRSVG	2.68 ± 0.14
CRLEGKTSVPCDNRGLGWAR	0.938 ± 0.47
SVECKCYYRL	5.59 ± 0.062
FIVRSLRSSHTKTVPLPACC	inactive
SAFYSDAL	1.08 ± 0.54
MLVDVLGC	inactive
FYVLFGSF	-2.07 ± 0.76
GYSDYVSYVKGC	0.182 ± 0.8
SVWCWDHSILLGFNLCNRKM	6.648 ± 0.062
IKTRKHSGIMAC	0.552 ± 0.32
CRMSLRYTVPYSVQPLRGSL	0.156 ± 0.41
FQWQLMVFSADEFQNMAHMI	0.182 ± 0.79
GRVFEK	4.93 ± 0.077
LIGFLEEKVLLFIITWCFQ	inactive
VPSFYYRIVTYKRAE	2.74 ± 0.094
MWLASSDNYHNMALVCFCVL	inactive

Substance	amyloid nucleation score
MLLIIVWQILMKLNGWITVL	inactive
TPRIS	0.647 ± 0.8
NHVNNLIHDFRPALEHLRDT	-0.134 ± 0.45
MFERINALFNLQ	3.46 ± 0.14
SYLKETMTGLLPLG	inactive
GWEYYSCGENWSLSPLSGYN	-0.969 ± 0.34
FHARPDSNPEENMVDSGI	inactive
EFMYGKTARGWFLALTARIF	inactive
SSNYYVLCFTMPYWFYSLV	1.02 ± 0.33
GGCVYSVTLFFTWTEWGKAK	-0.516 ± 0.79
DHAGWCSDRWVTDFDFAMGN	0.829 ± 0.5
IGNAMHSLHSIHVRCRHSLE	0.713 ± 0.74
IRYTFSKLRSDCFMRCARSW	0.898 ± 0.23
NIGRYIIQVGSNGEANWHRV	inactive
CLMDTGVFREYCS	-0.585 ± 0.26
CIQIAIYGWFTDTTIRG	6.48 ± 0.03
RYNDAFSVCRMDEITAWIWC	2.67 ± 0.085
NSIYTESHGCTSSCLYGSGY	-0.839 ± 0.78
SPPLYARHCYILERITTDRM	-1.73 ± 0.62
THSWGFSLYTFLVYINLSYI	-0.545 ± 1
CYSKLNASSVCIKFLPSQHE	-0.314 ± 0.27
ALMEKSTSNLLFCHLDCASD	3.24 ± 0.071

Substance	amyloid nucleation score
AWRGFTSIGAYYAQFGLGVA	0.431 ± 0.36
IFHCGLLRALRFSSHLYWVG	0.505 ± 0.51
AWDDL	0.154 ± 0.45
CHMDFERFRWLKFSLFCSLH	-0.562 ± 1.1
QFRTIHAHYNFFG	7.68 ± 0.048
DFALALVYTSMCLVVLYSML	4.4 ± 0.063
HLESAWSRVSTDRCTNTWTV	0.506 ± 0.45
NEDLIEKSLFCLAYSLFPTS	-0.266 ± 0.62
AIITLYSNHKLYLWALLLDA	-0.47 ± 1.1
RFGVSVTGDTSRCSGCGGAH	4.01 ± 0.089
LCNAKAS	-0.815 ± 0.64
LLLNILLCIDPYIPWCLSLR	0.974 ± 0.57
ILIMRKENGCLRELCFFCRA	inactive
YFNRIYYTDIYNMVALVICF	4.4 ± 0.12
CYYFLFNS	2.31 ± 0.062
YVLKLRRSRQSLSHRPALLY	inactive
KKVFLTFLEFVFNAISGWWV	-0.67 ± 0.79
YMYGVNNASSF	5.79 ± 0.054
LMLAYRLIFDDNRTGLSSAS	0.211 ± 0.5
